Measurements: patent CN116410305A (ATTOGEN BIOMEDICAL SUZHOU INC LTD, dated 2023)

Target: T1, 宫颈癌组织/细胞中内源的HPV16 E6蛋白 (HPV16, UniProt P03126 1-158)
T1 construct: Target detected by IHC or ICC in fixed tissue or cells; also called HPV16 E6致癌蛋白; HPV16 E6癌蛋白
Test: IHC on FFPE cervical cancer tissue array, clone supernatant

T1 sequence (P03126 whole entry): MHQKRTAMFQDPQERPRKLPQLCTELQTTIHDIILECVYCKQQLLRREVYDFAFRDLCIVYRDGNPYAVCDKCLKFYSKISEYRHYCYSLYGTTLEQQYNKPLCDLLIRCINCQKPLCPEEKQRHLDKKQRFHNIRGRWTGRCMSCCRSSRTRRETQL

B1: 抗HPV16 E6单克隆抗体A3E1 (antibody, V domains shown)
VH: QSLEESGGGLVTPGGTLTLTCTASGIDFSANYWIYWVRQTPGKGLEWIASIFTSDGETHYATWAKGRFTISKTSSTTVTLQMTSLTAADTATYFCATGGALWGPGTLVTVSS
VL: DIVMTQTPASVEAAVGGTVTIKCQASEDIENYLAWYQQKPGQPPKRLIYKASTLASGVPSRFKGSGSGTDFTLTISDLECADAATYYCQSNYYNFGSNYGSFAFGGGTEVVVK
notes: Rabbit monoclonal IgG from single B cell cloning, tested as B cell clone supernatant and as recombinant IgG from CHO cells; also called 克隆上清A3E1; 抗体克隆A3E1
B1: binds.
